From patent publication US20040213794

System: myelin basic protein (MBP)

Substance | in gel kinase assay (MBP as substrate)
Mst1 (mammalian sterile 20-like kinase-1), full length 61 kD form, endogenous in neonatal rat cardiac myocytes | activation of the full length (61 kD) and cleaved (34 kD) forms of Mst1 after 6 hr Doxo stimulation of cardiac myocytes
Mst1, cleaved 34 kD form (amino-terminal half containing the N-terminal kinase domain), in neonatal rat cardiac myocytes | activation of the full length (61 kD) and cleaved (34 kD) forms of Mst1 after 6 hr Doxo stimulation of cardiac myocytes
